Measured values from the nanobody polyreactivity screen of Harvey et al. (2022).

Assay: yeast display, Sf9 membrane polyspecificity reagent, FACS + sequencing; frameworks hold sequencing errors
How it was run: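 Nanobodies from a synthetic yeast display library (Saccharomyces cerevisiae BJ5465), induced 36–48 hours with galactose, were stained 1 hour at 4 °C with 10% biotinylated, detergent-solubilized Sf9 membrane reagent, enriched on streptavidin microbeads, then FACS-sorted. Anti-HA (expression) and streptavidin (reagent binding) fluorescence set low and high (top ~1%) gates. Polyreactivity labels come from the gate of origin. Genes were colony-PCR amplified, MiSeq 2 × 250 sequenced and filtered by CDR length.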

## QVQLVESGGGLVQAGGSLRLSCAASGSIFTGNTMGSDRQAPGKERELVAAISRSGGSTYYADSVKGRFTISRDNAKNTVYLQMNSLKPEDTAVYYCAAYRTHGPPRAIRFDYWGQGTQVTVSS
  polyreactivity (PSR sort gate): high polyreactivity

## QVQLVESGGGLVQAGGSLRLSCAASGSIFTGYAMGWYRQAPGKERELVAAISNSGTSTYYADSVKGRFTISRDNAKNTVYLQMNSLKPEDTAVYYCNTVGHRWLSDDDYWGQGTQVTVSS
  polyreactivity (PSR sort gate): low polyreactivity

## QVQLVESGGGLVQAGGSLRLSCAASGSIFTGYAMGWYRQAPGKERELVARITKRGGSTYYADSVKGRFTISRDNAKNTVYLQMNSLKPEDTAVYYCNADRKFPYGSYETHDYWGQGTQVTVSS
  polyreactivity (PSR sort gate): high polyreactivity

## QVQLVESGGGLVQAGGSLRLSCAASGSIFTHYAMGWYRPAPGKERELVATISNGDGSTYYADSVKGRFTISRDNAKNTVYLQMNSLKPEDTAVYYCNVDDFSQYADDSWGYEYWGQGTQVTVSS
  polyreactivity (PSR sort gate): low polyreactivity

## QVQLVESGGGLVQAGGSLRLSCAASGSIFTINAMGWYRQAPGKVRELVAAISWSGAPTYYADSVKGRFTISRDNAKNTVYLQMNSLTPEDTAVYYCATGYNYLDRNTGYVHRFDYWGQGTQVTVSS
  polyreactivity (PSR sort gate): low polyreactivity

## QVQLVESGGGLVQAGGSLRLSCAASGSIFTIYAMGWYRQAPGKERELVAAISFSGGSTYYADSVKGRFTISRDNAKNSVYLQMNSLKPEDTAVYYCAADGGFTYDYWGQGTQVTVSS
  polyreactivity (PSR sort gate): low polyreactivity

## QVQLVESGGGLVQAGGSLRLSCAASGSIFTIYAMGWYRQAPGKERELVAAITRSGGSTSYADSVKGRFTISRDNAKNTVYLQMNSLKPEDTAVYYCNKDLNFAKYISSILYDYWGQGTQVTVSS
  polyreactivity (PSR sort gate): low polyreactivity

## QVQLVESGGGLVQAGGSLRLSCAASGSIFTIYAMGWYRQAPGKERELVATITGGGGSTYYADSVKGRFTISRDNAKNTVYLQMNSLKPEDTAVYDCAADSPGWTYTSRSYDYWGQGTQVTVSS
  polyreactivity (PSR sort gate): low polyreactivity

## QVQLVESGGGLVQAGGSLRLSCAASGSIFTKYAMGWYRQAPGKERELVAAISWSGVSTYYADSVKGRFTISRDNAKHTVYLQMNSLKPEDTAVYYCNTRRYRSYGTTRYGYWGQGTQLTVSS
  polyreactivity (PSR sort gate): high polyreactivity

## QVQLVESGGGLVQAGGSLRLSCAASGSIFTKYAMGWYRQAPGKERELVAGISRTTGSTYYADSVKGRFTISRDNAKNTVYLQMNSLKPEDTAVYYCAALSYRRGISRDGGYDYWGQGTQVTVSS
  polyreactivity (PSR sort gate): high polyreactivity

## QVQLVESGGGLVQAGGSLRLSCAASGSIFTLNAMGWYRQATGKEREFVAAITLRSGSTYYADSVKGRFTISRDNAKNTVYLQMNSLKPEDTAVYYCAARRTRYIYYYWGQGTQVTVSS
  polyreactivity (PSR sort gate): high polyreactivity

## QVQLVESGGGLVQAGGSLRLSCAASGSIFTLYAMGWYIQAPGKEREFVAGMSFSTGRTYYADSVKGRFTISRDNAKNTVYLQMHSLTPEDTAGYYCAAYVSHYWYGLYRDGYWGQGTQATVSS
  polyreactivity (PSR sort gate): low polyreactivity

## QVQLVESGGGLVQAGGSLRLSCAASGSIFTLYDMGWYRQAPGKERELVAAITSGGSTDYADSVKGRFTISRDNAKNTVYFQMNSLKPEDTAVYYCNAEAYPYWYRGASREYDYWGQGTQVTVSS
  polyreactivity (PSR sort gate): low polyreactivity

## QVQLVESGGGLVQAGGSLRLSCAASGSIFTLYDMGWYRQAPGKERELVAAITSGGSTDYADTVKGRFTISRDNAKNTVYLQMNSLKPEDTAVYYCNAESFTYWYRGASREYDYWGQGTQVTVSS
  polyreactivity (PSR sort gate): low polyreactivity

## QVQLVESGGGLVQAGGSLRLSCAASGSIFTNNAMGWYRQAPRKERELVAAISWSGGSTYYADSVKGRFTISRDNAKITVYLQMISLKPEDTAVSYCAARYLYYGGRPGYDSWGQGTQVTVSS
  polyreactivity (PSR sort gate): high polyreactivity

## QVQLVESGGGLVQAGGSLRLSCAASGSIFTPNAMGWYRQAPGKERELVAAISRSGGSTYYADSVKGRFTISRDNAKNTVYLQMNSLKPEDTAVYYCAVDYRYYYRYTSGEYWGQGTQGTVSS
  polyreactivity (PSR sort gate): low polyreactivity

## QVQLVESGGGLVQAGGSLRLSCAASGSIFTPNAMGWYRQAPGKERELVAAISSSSDRTYYADSVKGRFTISRDNAKNTVYLQMNSLKPEDTAVYYCAAYAQKRYYWGQGTQVTVSS
  polyreactivity (PSR sort gate): high polyreactivity

## QVQLVESGGGLVQAGGSLRLSCAASGSIFTPNVMGWYRQAPGKERELVAAISQSGGSTFYADSVKGRFTISRDNAKNTVYLQMNSLKPEDTAVYYCATEYYGPVYDLDYDYWGQGTQVNVSS
  polyreactivity (PSR sort gate): low polyreactivity

## QVQLVESGGGLVQAGGSLRLSCAASGSIFTPYAMGWYRQAPGKERELVAAISSDGSTYYADSVKGRFTISRDNAKNTVYLQMNSLKTEDTAVYYCAAEYSWYYYYLFVGEYDYWGQGTQVTVSS
  polyreactivity (PSR sort gate): low polyreactivity

## QVQLVESGGGLVQAGGSLRLSCAASGSIFTPYAMGWYRQAPGKERELVAAISYSGGSTYYADSVKGRFTISRDNAKNTVYLQMNSLKPEDTAVYYCATDGYVYTPFDDDEDYWGQGTQVTVSS
  polyreactivity (PSR sort gate): low polyreactivity

## QVQLVESGGGLVQAGGSLRLSCAASGSIFTPYAMGWYRQAPGKERELVATISWSGGRTYYADSVKGRFTISRDNAKNTVYLQMNSLKPEDTAVYYCNADVLKYKFDYWGQGTQVTVSS
  polyreactivity (PSR sort gate): high polyreactivity

## QVQLVESGGGLVQAGGSLRLSCAASGSIFTPYAMGWYRQAPGKEWELVAAISWRGCNTYYADSVKGRFTISRDNAKNTVYLQMNSLKPEDTAVYYCAAEQNYVYETGSYDYWGQGTQVTVSS
  polyreactivity (PSR sort gate): low polyreactivity

## QVQLVESGGGLVQAGGSLRLSCAASGSIFTQNAMGWYRQAPGKERELVAGISDGDSTNYADSVKGRFTISRDNAKNTVYLQMNSLKPEDTAVYYCNAQGTTETSGGGFFRGMDYWGQGTQVTVSS
  polyreactivity (PSR sort gate): low polyreactivity

## QVQLVESGGGLVQAGGSLRLSCAASGSIFTQYAMGWSRQAPGKERELVAVITTGSSTYYADSVKRRFTISRDNAKNTVYLQMNSLKPEDTSVYYCAVRTATRSPRRYGYWGQGTQVTVSS
  polyreactivity (PSR sort gate): high polyreactivity

## QVQLVESGGGLVQAGGSLRLSCAASGSIFTQYAMGWYRQAPGKERELVAAISWTGGRTNYADSVKGRFTISRDTAKNTFYLQMNSLKPEDTSVYYCAATYLLRYCQGWKRMDYWGQGTQVTVSS
  polyreactivity (PSR sort gate): high polyreactivity

## QVQLVESGGGLVQAGGSLRLSCAASGSIFTRNAMGWSRQAPGKEREFVAAISSSGVSTYYADSVKGRFTISRDNAKNTVYLQMNSLKPEDTAVYYCAARWGTKSGRYDYWGQGTQVTVSS
  polyreactivity (PSR sort gate): high polyreactivity

## QVQLVESGGGLVQAGGSLRLSCAASGSIFTRNAMGWYRPAPGKERELVAAISRRGVSTYYADSVKGRFTTSRDNAKNTVYLQMNSLKPEDTAVYYCNKLSSYVVARRTTEYDYWGQGTQVTVSS
  polyreactivity (PSR sort gate): high polyreactivity

## QVQLVESGGGLVQAGGSLRLSCAASGSIFTRNVMGWSRQAPGKERELVAAITGSGGRTYYADSVKGRFTISRDNAKNTVYLQMNSLKPEDTAVYYCAKSRPGTYDYWGQGTQVTVSS
  polyreactivity (PSR sort gate): high polyreactivity

## QVQLVESGGGLVQAGGSLRLSCAASGSIFTRYAMGWYRQAPGKDRELDADIRWGGGDTYYADSVKGRFTNSRDNAKNTVYLQMNSLTPEDTAVYYCNADHTFIKYYPDWGDYGRDYDYWGQGTQVTVSS
  polyreactivity (PSR sort gate): low polyreactivity

## QVQLVESGGGLVQAGGSLRLSCAASGSIFTRYAMGWYRQAPGKERELVAAITASGGRTYYADSVKGRFTISRDNAKNTVYLQMNSLKPEDTAVYYCNTYWRYTSQLPYDYWGQGTQVTVSS
  polyreactivity (PSR sort gate): high polyreactivity

## QVQLVESGGGLVQAGGSLRLSCAASGSIFTRYAMGWYRQAPGKERELVAAITKSGSRTYYADSVKGRFTISRDNAKNTVYLQMNSLKPEDTAVYYCAVKFYLPRTRGGYWGQGTQVTVSS
  polyreactivity (PSR sort gate): high polyreactivity

## QVQLVESGGGLVQAGGSLRLSCAASGSIFTRYAMGWYRQAPGKERELVATISKRSGSTYYADSVKGRFTISRDNAKNTVYLQMISLKPEDTAVYYCAARNSGRVKYGYWGQGSQVTVSS
  polyreactivity (PSR sort gate): high polyreactivity

## QVQLVESGGGLVQAGGSLRLSCAASGSIFTRYAMGWYRQAPGKERELVAVISVSGGRTYYADSVKGRFTISRDNAKNTVYLQMNSLKPEDTAVYYCATDYYRPALDYWGQGTQVTVSS
  polyreactivity (PSR sort gate): high polyreactivity

## QVQLVESGGGLVQAGGSLRLSCAASGSIFTSNAMGWYRQAPGKEWELVAAITSDGAITYADSVKRRFTISRDNAKNTVYLQMNTLKPEDTAVYYCAARIRQNPGGDNSWGQGTQVTVSS
  polyreactivity (PSR sort gate): low polyreactivity

## QVQLVESGGGLVQAGGSLRLSCAASGSIFTVNTMGWYRQAPGKERELVATISKRGGRTYYADSVKGRFTISRDNAKNTVYLQMNSLKPEDTAVYYCNRVASGYPVGTSIDYGYWGQGTQVTVSS
  polyreactivity (PSR sort gate): high polyreactivity

## QVQLVESGGGLVQAGGSLRLSCAASGSIFTWNGMGWYRQAPGKERELVAAISNGASTNYAESVKGRFTISRDNAKNTVYLQMNSLKPEDTAVYYCAAKSTGRYDYWGQGTQVTVSS
  polyreactivity (PSR sort gate): low polyreactivity

## QVQLVESGGGLVQAGGSLRLSCAASGSIFTWYAMGWYRQAPGKERELVARINVSAGITYYADSVKGRFTISRDNAKNTVYLQMNSLKPEDTAVYYCAATGWRRPKHNYWGQGTQVTVSS
  polyreactivity (PSR sort gate): low polyreactivity

## QVQLVESGGGLVQAGGSLRLSCAASGSIFTWYAMGWYRQAPGTERELVAAITRGGSTYADSVKGRFTISRDNAKNTVYLQMNSLKPEDTAVYYCNAVYGVYDFNYWGQGTQVTVSS
  polyreactivity (PSR sort gate): low polyreactivity

## QVQLVESGGGLVQAGGSLRLSCAASGSIFTYKAMGWYRQAPGKERELVAAIRQRGGSTYYADSVKGRFTISRDNAKNTVYLQKNSLKPEDTAVYYCAARGSYVRSYYYYWGQGTQVTVSS
  polyreactivity (PSR sort gate): high polyreactivity

## QVQLVESGGGLVQAGGSLRLSCAASGSIFTYNAMGWYRQAPGKDRELVAAIRLSGGSTYYADSVKGRFTISRDNAKNTVYLQMTSLNPEDTAVYYCAAESAAASGVYSVEYDYWGQGTQVTVSS
  polyreactivity (PSR sort gate): low polyreactivity

## QVQLVESGGGLVQAGGSLRLSCAASGSIFTYNAMGWYRQAPGKERELVAAINTSGSTNYADSVKGRFTISRDNAKNTVYLQMNSLKPEDTAVYYCAAGIVVTGYAYWGQGTQVTVSA
  polyreactivity (PSR sort gate): low polyreactivity

## QVQLVESGGGLVQAGGSLRLSCAASGSIFTYNVMGWYRQAPGKERELVDAISWDGDSTYYSDSVKGRFTISRDNEKNTVYLQMKSLKQDDTAVYYCAADVHEKFQYDYWGQGNQVTVSS
  polyreactivity (PSR sort gate): high polyreactivity

## QVQLVESGGGLVQAGGSLRLSCAASGSIFTYYAMGWYRQATRKERELLADIRWSVGSTYYADSVKGRFTISRDNAKNTVYLQMNSLKPEDTAVYYCNAVVYIYYLTSYKYGNDSWGQGTQVTVSS
  polyreactivity (PSR sort gate): low polyreactivity
